Laboratory results from patent US9650648.

Assays:
Experiment in all cases: cell_activity
[1] = test system: TALEN 101292 (BCL11A exon 2) (synthetic); settings: pair with 101291; K562, Cel-I
[2] = test system: ZFN 45147 (BCL11A exon 2) (synthetic); settings: pair with 39145; K562; printed as 41547 in Table 1B, 45147 in Table 1A
[3] = test system: ZFN 43490 (BCL11A exon 2) (synthetic); settings: pair with 39145; K562
[4] = test system: ZFN 44642 (BCL11A exon 2) (synthetic); settings: pair with 39145; K562
[5] = test system: ZFN 45148 (BCL11A exon 2) (synthetic); settings: pair with 39145; K562; printed as 41548 in Table 1B, 45148 in Table 1A
[6] = test system: ZFN 39172 (BCL11A exon 2) (synthetic); settings: pair with 39145; CD34+ cells; 3.65X gamma mRNA
[7] = test system: TALEN 102315 (gamma globin promoter) (synthetic); settings: pair with 102320; K562, Cel-I
[8] = test system: ZFN 36021 (KLF1 exon 1) (synthetic); settings: pair with 36004; CD34+ cells; 2.2X gamma mRNA
[9] = test system: TALEN 101291 (BCL11A exon 2) (synthetic); settings: pair with 101292; K562, Cel-I
[10] = test system: TALEN 101301 (BCL11A exon 4) (synthetic); settings: pair with 101304; CD34+ cells; 2.31X gamma mRNA
[11] = test system: ZFN 31160 (gamma globin -175) (synthetic); settings: pair with 34365; K562; 45.22% in CD34+; 1.63X gamma mRNA
[12] = test system: ZFN 45081 (BCL11A exon 2) (synthetic); settings: pair with 39172; K562
[13] = test system: ZFN 44490 (BCL11A exon 2) (synthetic); settings: pair with 39172; K562
[14] = test system: ZFN 44489 (BCL11A exon 2) (synthetic); settings: pair with 39172; K562
[15] = test system: ZFN 44493 (BCL11A exon 2) (synthetic); settings: pair with 39172; K562
[16] = test system: ZFN 39145 (BCL11A exon 2) (synthetic); settings: pair with 39172; CD34+ cells; 3.65X gamma mRNA
[17] = test system: ZFN 44904 (BCL11A-XL) (synthetic); settings: pair with 44905; K562
[18] = test system: ZFN 43544 (beta-globin IVS1.1) (synthetic); settings: pair with 43545; CD34+ cells
[19] = test system: ZFN 34400 (gamma globin -175) (synthetic); settings: pair with 34398; K562, Cel-I
[20] = test system: ZFN 34365 (gamma globin -175) (synthetic); settings: pair with 31160; K562; 45.22% in CD34+; 1.63X gamma mRNA
[21] = test system: ZFN 43852 (gamma globin -110) (synthetic); settings: pair with 43865; CD34+ cells
[22] = test system: ZFN 34539 (gamma globin -110) (synthetic); settings: pair with 34574; CD34+ cells; 5.38X gamma mRNA
[23] = test system: TALEN 102568 (gamma globin -110) (synthetic); settings: pair with 102566; CD34+ cells, MiSeq; 6.25X gamma mRNA
[24] = test system: ZFN 44910 (BCL11A-XL) (synthetic); settings: pair with 44911; K562
[25] = test system: ZFN 34360 (gamma globin -175) (synthetic); settings: pair with 34363; K562, Cel-I
[26] = test system: TALEN 102318 (gamma globin promoter) (synthetic); settings: pair with 102314; K562, Cel-I; 2.14X gamma mRNA in CD34+
[27] = test system: ZFN 44946 (BCL11A-XL) (synthetic); settings: pair with 44947; K562
[28] = test system: ZFN 44944 (BCL11A-XL) (synthetic); settings: pair with 44945; K562
[29] = test system: ZFN 44889 (BCL11A-XL) (synthetic); settings: pair with 44888; K562
[30] = test system: TALEN 102321 (gamma globin promoter) (synthetic); settings: pair with 102316; K562, Cel-I
[31] = test system: TALEN 102314 (gamma globin promoter) (synthetic); settings: pair with 102318; K562, Cel-I; 2.14X gamma mRNA in CD34+
[32] = test system: TALEN 101304 (BCL11A exon 4) (synthetic); settings: pair with 101301; CD34+ cells; 2.31X gamma mRNA
[33] = test system: ZFN 43545 (beta-globin IVS1.1) (synthetic); settings: pair with 43544; CD34+ cells
[34] = test system: ZFN 34398 (gamma globin -175) (synthetic); settings: pair with 34400; K562, Cel-I
[35] = test system: ZFN 34678 (BCL11A exon 4) (synthetic); settings: pair with 34642; CD34+ cells; 3.52X gamma mRNA
[36] = test system: TALEN 102566 (gamma globin -110) (synthetic); settings: pair with 102568; CD34+ cells, MiSeq; 6.25X gamma mRNA
[37] = test system: ZFN 36085 (KLF1 exon 2) (synthetic); settings: pair with 36071; CD34+ cells; 3.17X gamma mRNA
[38] = test system: ZFN 43865 (gamma globin -110) (synthetic); settings: pair with 43852; CD34+ cells
[39] = test system: ZFN 34574 (gamma globin -110) (synthetic); settings: pair with 34539; CD34+ cells; 5.38X gamma mRNA
[40] = test system: ZFN 44945 (BCL11A-XL) (synthetic); settings: pair with 44944; K562
[41] = test system: ZFN 36004 (KLF1 exon 1) (synthetic); settings: pair with 36021; CD34+ cells; 2.2X gamma mRNA
[42] = test system: ZFN 44905 (BCL11A-XL) (synthetic); settings: pair with 44904; K562
[43] = test system: ZFN 44947 (BCL11A-XL) (synthetic); settings: pair with 44946; K562
[44] = test system: ZFN 34363 (gamma globin -175) (synthetic); settings: pair with 34360; K562, Cel-I
[45] = test system: TALEN 102316 (gamma globin promoter) (synthetic); settings: pair with 102321; K562, Cel-I
[46] = test system: ZFN 36071 (KLF1 exon 2) (synthetic); settings: pair with 36085; CD34+ cells; 3.17X gamma mRNA
[47] = test system: ZFN 44911 (BCL11A-XL) (synthetic); settings: pair with 44910; K562
[48] = test system: ZFN 44888 (BCL11A-XL) (synthetic); settings: pair with 44889; K562
[49] = test system: ZFN 34642 (BCL11A exon 4) (synthetic); settings: pair with 34678; CD34+ cells; 3.52X gamma mRNA
[50] = test system: TALEN 102320 (gamma globin promoter) (synthetic); settings: pair with 102315; K562, Cel-I

CTCGATAAAAATAAGAATGT (double strand) [BCL11A exon 2 TALEN 101292 site]
activity [1]: 0.8 % indels

CTCCAGAAGGGGATCATGACCTCCTCAC (double strand) [BCL11A exon 2 site, SEQ 160]
activity [2]: 35.6 % indels
activity [3]: 19.9 % indels
activity [4]: 38.5 % indels
activity [5]: 42.3 % indels
activity [6]: 69.8 % indels

GTATCCTCTTGGGGGCCC (double strand) [HBG TALEN 102315 site]
activity [7]: 47.9 % NHEJ

ACACACAGGATGACTTCCTCAAGGTGGG (double strand) [KLF1 exon 1 36021 site]
activity [8]: 44.4 % indels

CTGTGGGCAGTGCCAGATGA (double strand) [BCL11A exon 2 TALEN 101291 site]
activity [9]: 0.8 % indels

ATGTCCTTCCCAGCCACCTCT (double strand) [BCL11A exon 4 TALEN 101301 site]
activity [10]: 35.7 % indels

TATTTGCATTGAGATAGTGTGGGGAAGG (double strand) [HBG -175 31160 site]
activity [11]: 53 % NHEJ

CCCAACGGGCCGTGGTCTGGTTCATCAT (double strand) [BCL11A exon 2 site, SEQ 170]
activity [12]: 27.8 % indels
activity [13]: 29.4 % indels
activity [14]: 24.3 % indels
activity [15]: 25.7 % indels
activity [16]: 69.8 % indels

TGGACAGTGAGATTGCTACAGTTCTTGA (double strand) [BCL11A-XL 44904 site]
activity [17]: 25.4 % indels

AATCTGCCCAGGGCCTCACCACCAACTT (double strand) [HBB IVS1.1 43544 site]
activity [18]: 52.6 % NHEJ

CTGTCTGAAACGGTCCCTGGCTAAACTC (double strand) [HBG -175 34400/34365 site]
activity [19]: 54 % NHEJ
activity [20]: 53 % NHEJ

TGGTCAAGGCAAGGCTGGCCAACCCATG (double strand) [HBG -110 34539/43852 site]
activity [21]: 56.1 % NHEJ
activity [22]: 45.7 % NHEJ

TTGGTCAAGTTTGCCTTGTCA (double strand) [HBG -110 TALEN 102568 site]
activity [23]: 51.4 % NHEJ

CTCCTGTGGACAGTGAGATTGCTACAGT (double strand) [BCL11A-XL 44910 site]
activity [24]: 36.4 % indels

TTGCATTGAGATAGTGTGGGGAAGGGGC (double strand) [HBG -175 34360 site]
activity [25]: 39 % NHEJ

ATATTTGCATTGAGATAGTGT (double strand) [HBG TALEN 102318 site]
activity [26]: 41.6 % NHEJ

CTACTCTGGGCACAGGCATAGTTGCACA (double strand) [BCL11A-XL 44944/44946 site]
activity [27]: 34.2 % indels
activity [28]: 24 % indels

CTCACTGTCCACAGGAGAAGCCACACGG (double strand) [BCL11A-XL 44889 site]
activity [29]: 35.1 % indels

ATATTTGCATTGAGATAG (double strand) [HBG TALEN 102321 site]
activity [30]: 46.6 % NHEJ

GTATCCTCTTGGGGGCC (double strand) [HBG TALEN 102314 site]
activity [31]: 41.6 % NHEJ

GTTAAAGGGGTTATTGTCT (double strand) [BCL11A exon 4 TALEN 101304 site]
activity [32]: 35.7 % indels

ATCAAGGTTACAAGACAGGTTTAAGGAG (double strand) [HBB IVS1.1 43545 site]
activity [33]: 52.6 % NHEJ

TTTGCATTGAGATAGTGTGGGGAAGGGG (double strand) [HBG -175 34398 site]
activity [34]: 54 % NHEJ

ATATTGCAGACAATAACCCCTTTAACCT (double strand) [BCL11A exon 4 34678 site]
activity [35]: 82.2 % indels

GTTGGCCAGCCTTGCCTTGAC (double strand) [HBG -110 TALEN 102566 site]
activity [36]: 51.4 % NHEJ

CTTCTCGGGCCCGGAGCCCGGTGGCGCG (double strand) [KLF1 exon 2 36085 site]
activity [37]: 22.6 % indels

GCCTTGACAAGGCAAACTTGACCAATAG (double strand) [HBG -110 34574/43865 site]
activity [38]: 56.1 % NHEJ
activity [39]: 45.7 % NHEJ

AAGCTCACCAGGCACATGAAAACGCATG (double strand) [BCL11A-XL 44945 site]
activity [40]: 24 % indels

GGGAAGGGGCCCAGGGCGGTCAGTGTGC (double strand) [KLF1 exon 1 36004 site]
activity [41]: 44.4 % indels

GAGAAGCCACACGGGCGAAAGGCCTTAT (double strand) [BCL11A-XL 44905 site]
activity [42]: 25.4 % indels

CTCACCAGGCACATGAAAACGCATGGCC (double strand) [BCL11A-XL 44947 site]
activity [43]: 34.2 % indels

ATCTGTCTGAAACGGTCCCTGGCTAAAC (double strand) [HBG -175 34363 site]
activity [44]: 39 % NHEJ

GTATCCTCTTGGGGGCCCC (double strand) [HBG TALEN 102316 site]
activity [45]: 46.6 % NHEJ

GGTGAGGAGGAGATCCAGGTCCCAGGTG (double strand) [KLF1 exon 2 36071 site]
activity [46]: 22.6 % indels

GCCACACGGGCGAAAGGCCTTATAAATG (double strand) [BCL11A-XL 44911 site]
activity [47]: 36.4 % indels

TTGCTACAGTTCTTGAAGACTTTCCCAC (double strand) [BCL11A-XL 44888 site]
activity [48]: 35.1 % indels

ATCCCATGGAGAGGTGGCTGGGAAGGAC (double strand) [BCL11A exon 4 34642 site]
activity [49]: 82.2 % indels

ATATTTGCATTGAGATAGT (double strand) [HBG TALEN 102320 site]
activity [50]: 47.9 % NHEJ
